Source: the DeepSol protein solubility set

assay: soluble on expression in E. coli; label from the status in PepcDB or PDB records

Row | Sequence | soluble on expression in E. coli
1 | SMSAGPWKMVVWDEDGFQGRRHEFTAECPSVLELGFETVRSLKVLSGAWVGFEHAGFQGQQYILERGEYPSWDAWGGNTAYPAERLTSFRPAACANHRDSRLTIFEQENFLGKKGELSDDYPSLQAMGWEGNEVGSFHVHSGAWVCSQFPGYRGFQYVLECDHHSGDYKHFREWGSHAPTFQVQSIRRIQQ | soluble
2 | MINSSMQFDRILASQPGISLIAEKRITRSASYFPDHFPKRPVLPMTVLLECKLNLAKEFIARAKYDRAYRISELRKIKMNEFVHPGDVVVCQVKVKQQMDDELILSYRCEVDGKRVCVVDIVLIPKGKLEHHHHHH | not soluble
3 | MGSDKIHHHHHHMKISNISYFNFRNLENTSIDLSDKINVFYGKNAQGKTSLLEAIYYSSTGISFKTKKTSEMIKYNFDEFISSISYQDYIANNKISVRFKNIAGAKKEFFFNKKRISQTDFYGKINIIAYIPEDIILINGSPKHRRDFFDIEISQIDKEYLTNLKNYDKLLKIRNKYLKENKRNSEEFAIYEKEFIKYASYIIFTRIEYVKSLSIILNLQYRKLFNIAQELNLRYETSLDKTAKVTIEMIQESLKREISQKKYQEDKYKFSLVGPHKDDYKFLLNGHEAKISASQGEKKSIIFSLKLSEIEIIKKNRKENPVVIIDDITSYFDEDRRKSILDFFNKRDIQVLISSTDKLDIEAKNFYVEKGIIKDESNINK | not soluble
4 | MGSDKIHHHHHHMYKKSVDLSLESVLVEIDENKKLMPSRNATVQPVALMRLGLFLPSLKRKGKDTENISIDASSELQSLELARAEGYTDIRITGPRLSMETDFKVWVGIILAFSKYGLNSSTIELPFSEFATFCGFSSKDKDKGLRTRLADSLIRLRSTTIKLASEKDRNGVVSGLLSRGKWDEKDDIMELTADESLWELYQFDRQVLLQMFIIRQLANKGTAQALYTFIESLPERPIPLSFARIKRRLMLTSPNNQQNRVINKAIDELKAVGYLDGDVVKKDGEWHLIITRRTPRPDIKAMSEALKDGE | not soluble
5 | MLFSKETLKSFAQSKGISNIDDDALRVLSQDLEYRIKEVCQEGSKFMVGSKRTKLSIDDINYALTSRNVDPLFGYDPQESLVFRGLPSNVYYVPDEEIDLEEYLDRPLPKVPLRVSIQSHWLAIEGVQPQIPYNPILLEKPVAKKDTLGTYQEEAELKSQNKHMLTKELGMYFDKVIQAMESDEQTAMECLHNESGIQQLVPYFVHHFNEQIVKNIKNKEKLMTVVMVYSSLLKNKYIFVDPYLHQILPSLITCVIGKNVDDDVRKVAADVVKYVFSNFSSSYKTLAPRIINTLSKAWLDREKTESTQYGALFCLSILSKHVVETVIKPKADYYVREINNPRVVGLLKDILQSNGL | soluble
6 | MQKIKVQDAIGSVLMHDLTQIIPGKTKDARFRKGHVIKEEDIPTLLSMGKEHIFVWDQTPGLIHEDEAAERLAKAVAGPGLSFSETKEGKVNLIAEEDGLIYASEEGIYALNSLEYIILATLHNHRPVKKGQKIAGTRVVPLMIDENVVIEAEGIARRFEEPILQIRPLQSKKVGVVTTGSEVYHGRIQDKFGPVLQRKVAEWGSVLLGQTFADDDVEMIQERIREHIEQGAEMVLVTGGMSVDPDDLTPTAIKGLGGRVDHLWHSCSSRSHAVAGLPGLEHHHHHH | not soluble
7 | MNHTLQFPKAPEHLLQALNEVIPKCKLMAQQLPETAISLWLIPPVFPTERLDDDIIRRIWSDTPYWIFCWASGLAMAQWLLAEPHHVKDKVVLDFGAGSGVVAIAAKMAGAKRVICCDIDETSLNACRENALLNNVELEYLNDLYLSESVDILLAADVLYDQSNRFFLDEFLKFAPEVWVADSRVKNFSHPGYIKIDERSATTWPDLDEAKEFRNVSFYKTLEHHHHHH | not soluble
8 | MGSDKIHHHHHHMNPSSRHPQHSDTAASGASEGVPRRYASGRQYELRRGDALAVVTELAAGLRLYSRGGVQLTETYGDGDIPPGATGITLAPWANRVEDGVWYLNGKKQQLDITEVSRNNASHGLLRNAAYELVDEAEFSVTLEAPVFPQHGYPFLVRHRVQYLLAEDLGLVVRQTLLNDSQAPAPFVLGAHPYLRLGDVPASDLVLTVGTGSRLVADERLIPRSSEQVDGATDLRGGRTVSELDIDVAYTDLTFDGGVARQTLKASDGRSVSLWQDENCSYVHVFVTDQYPGRAKAVAIEPMTGPANAFNSGDGLRWLPAGESFTMTWGISASL | not soluble
9 | MINLTSIASSLARVALSDSTKPTIDRALNVVSHIAGKVALQVNSSLLEQKGRLNERQQKGLAVILDALRGKEPVTNVETHEGGGRFNLARAAFDVASVVWERDKSMHNVMSFLGVSDSQGKMLFSLGKKLADAMAKPEPGYGKHNSEANYAFFSSNLKLNKLMSDIADQLINEIRQSNTDRVRRPTPGPSWRPESAQQQARPQTPPRTRPQANSTPPPPKAKPNAGAKRPSTQRPHNTPAADASSKVGDSGPAKPPVKPLYEHLGLSDMTADLSAVKTAYKKAALKNHPDKNAGNVAEATERFKVISNAFKILSDPELRKKYDNGLINEKGDEVQV | not soluble
10 | ESYWRSRMIDAVTSDEDKVAPVYKLEEICDLLRSSHVSIVKEFSEFILKRLDNKSPIVKQKALRLIKYAVGKSGSEFRREMQRNSVAVRNLFHYKGHPDPLKGDALNKAVRETAHETISAIFSEENG | soluble
11 | MASECVDENSKPWMRVTVSCALLPEVLKQGAEAGGAVKLTGNPSEQSSEDGSHHCSSNFQNSPVTSDLSVLDASPCGLPAEKRKPPHRETSISSNASQSEREIAPTATRRLSPKPETATLSPSESSSLTAATLSNCSSRVQSSSDEKIGNCPSTSACSVSQTTASSEAPSWLSSGASTAQVLSERRGSIEEQPAPETSAAAVRVSRSSSDSENLFASCSASLRNLEPDDISDPENEAAAPACAETGASRAQDAAAVRADAENLGEGESHMETASTRAESLAKDAISSKVSRRGSAHTSSDASGQCQDALPSVGEGKPGEMNGREEDGEAEKPEASAESLQGSDGQANESEAPKPGGGRVDAKMRAKFKREFVRSWVDINRAPSWPPIKKNKYLSSDWKRVDLRTAAGEIRVETKKHRLFLNDLCFLFDGVYTQKSTLGRKAGLGLFCERPEGLHKGQIITEFVGWLVDRDLAESYRKQRTASHIVAVQKGFLYIDGAKEPAYGMGGGSFANDGSEFLGGPGNNAQFYHWFDDELGRTRVFLRATADIKNGEEIFVPYHKTYWVDNFEEQAENCPDAFKQRKLEQLRRRYKNPEFVHIPHREEVAMREREEAERRKRDKEESEKKKAAAKQPRCPVKRPCSAYLLFSVARRKELLKACGILSKGDDEPASQQVSESPEVPREGQRKRRASSASQAAAPVPAAANKRRKAEKDEPSSPEETKRGQVVAAAGLKRGAARPACVGDETAQKLAGWLAKDGAANVRTLCAELTREVAREWGNMRPEEKKPWEQLAEKEKIRYAKAVRTWREKLKKKKSGRETATRKRKVPCSRKGHGTEKGEKAGKVKPQADTSPREAAPEGTETRDHEDVQAGAKDRAATQKER | soluble
12 | MAHHHHHHMKLFCVGHRKVPIRVSPFDHPICVGCSSTLSFSSVLRKREYWNDMSTTNPLDVVLNMRLAVKELTNSAAASDKASEREKIKAKKALNKDNIEAARVYAENAIRKKDEGTSYLRLASRVDAAAERIQSAMQMHAMTRSLEKAICGISKVLHSLDPVQITTAMDAFERHVDTVAVNANAMDGTFERSRASAVPAAEVESFLEQITPDNEIDISEQIAVATNYLKKRPAATEVGDDVGITERMQRISIGAR | not soluble
13 | MQDPYVKEAENLKKYFNAGHSDVADNGTLFLGILKNWKEESDRKIMQSQIVSFYFKLFKNFKDDQSIQKSVETIKEDMNVKFFNSNKKKRDDFEKLTNYSVTDLNVQRKAIDELIQVMAEFSTEEQQEGPYVKEAENLKKYFNAGHSDVADNGTLFLGILKNWKEESDRKIMQSQIVSFYFKLFKNFKDDQSIQKSVETIKEDMNVKFFNSNKKKRDDFEKLTNYSVTDLNVQRKAIHELIQVMAELSPAAKTGKRKRSQMLFRG | soluble
14 | MASRKTVNRRQRPQRATSNVFAMFDQAQIQEFKEAFNMIDQNRDGFIDQEDLKDMFASLGKEVTEQFIDSMINEAPGAQPINFTMFLTLFGEKLTGTDPEEVIRNAFQCFDEDNSGKLNEEHLRELLTTMGERYSEEQVDELFRDAPIKGGQFDYVEFTRMLKHGTKDKDEA | not soluble
15 | MKTKSPALSGKLTDTELRTLRIFMAVVHYSGFTPAALELNVSRSAVSIAMADLEKRLSLRLCERGRAGFSLTTEGREVYRSTRQLFSALDQFRIQINAIHFNLKGELNIGITDNLVTMPQMRITSALRELNRLGPDVQINIQMIPPNEIISGVLDGQLHTGVIPVQKHYEGLEYLLLYEERSSLYCGQEHELFCRHDSELSPSMLKQYNGVLPAYDQTSEIKALHHELQLSASATDREGVAFLILTGRYIGYLPDHYAHRWVKEGVMRAILPANMSYLTPFATITKKGAPSNLVLENYLEQLKLASTTAGG | not soluble
16 | MSLKATYSMLSQVTFPLAEAGYYVVPVALADETFRQNGLTSAGDVHQVSPAKLREIYGADAALYVTVSDYGTRYMVISSATIVTASAKLVDLRSGTTLWTGSATASSEEGNGGNNGGLVGMLITAAVKQIINSSVEDAGYPIAGMTSARLLSAGQPGGLLYGPRSPRYGSDEGHHHHHH | soluble
17 | MDTLQGMRVFARVVDSGSFTSAAQALDLSTAQVSRLISDLEAHLQTRLLHRTTRRLALTEAGERYLERCRGILEDIEVAEAEAAGAHIRPCGRLRVQSLMGMGQHHLVPMIARYGALFPDVVIELTLSQRNPDMLEEGQDVLITGERQLPDSEFVAQRLGSIHSVLCASPGYLQQHGVPRSVDDLERHVCLRLQDPAYPEGWIFADEQGERTVSPQNTFMVNVAEVMAQAAKADLGIALLPSYVAAAALRNGELLRVLPGHAMHQRTIYALYPSRRYLDAKIRTWVDLLQQELPQAFARDETTMQSSSYCAQ | not soluble
18 | MDERTELLKRIEELEEKLRQCQQREQELEALIEEYNEVMKKQFQVFDDFFEKLGTTKMIDPLTRVYAKDHFLRLLSYQHQRAFEENTPYTIFFVKTKVSKNEREKALMKIGKILKECVRVPLDSVGRYSDDTFALFVIGVGKETAPNIEERIKNHIESIGGIEYSIAYKSYPEDFMDLEKAILDLEKAVA | not soluble
19 | MALLVTQPSEGLPPLAATSRSIYEAAYQLSQGTGPFAIDTERAGAYRYDDRAYLLQIRREGSGTVLIDPEANRRLVTSVLGKVINNQPWIIHAAATDLPCLSELGFYPSTIFDTELAGRLAGLPRVNLASMLEERLEVTLKKAHGAEDWSRRPLPHSWLVYAALDVEKLIPLAESMKLLLEAHGKLEWHKQECAHLINTSSHGLDTQRSWQDIKGVSRLTRPRQLVVAEALWELRDDEARMKNTSVSRLLPDKVLISVAQRPPRNSQAALRASEIPKQYRKRIARWMPTINDVLESDPRTWPHTPQFDENQLPSKYVWEKIHPESLDDFEEVKNSIVEKALLLNLPAENLMQPHSVKELCWQLRDVPRPIAQDDVIECLMRLEARPWQIDNSASVITDTLNKIEHAS | not soluble
20 | MKTAIVTDSTAYLPKEVRERLGIRLIPLSVIFGNETYREEIDMTADEFFAKIKQHPTLPTTSQPSVGEFVDLFTAIREEGYEAVVSIHLSSGISGTYQGAVTAGTMVDGLRVYAYDSEISCMAQGFYAIEAAEMAQAGRSPEDIIARLDEMKQTLRAYFMVDDLAHLQRGGRLTGAQAFIGGLLQIKPLLRFENKVIVPFEKIRTRKKAIHRIEELFAEDAEKGVPLKAAIIHANQPDEAHRWRDELSARYPHVEFSISYFGPVIATHVGEGALGLTWYQP | soluble
